Patent US20220153832A1 (PIONYR IMMUNOTHERAPEUTICS, published 2022)

How the values were obtained:
[1] = target: T1, N-terminal his-tagged mouse MARCO protein, recombinant (mouse, UniProt Q60754 150-518); experiment: Biacore
T1 construct: The entry holds the His tag, the CLD and the SRCR domain; also called mMARCO (RG3016); PI-RG-3016
T1 sequence: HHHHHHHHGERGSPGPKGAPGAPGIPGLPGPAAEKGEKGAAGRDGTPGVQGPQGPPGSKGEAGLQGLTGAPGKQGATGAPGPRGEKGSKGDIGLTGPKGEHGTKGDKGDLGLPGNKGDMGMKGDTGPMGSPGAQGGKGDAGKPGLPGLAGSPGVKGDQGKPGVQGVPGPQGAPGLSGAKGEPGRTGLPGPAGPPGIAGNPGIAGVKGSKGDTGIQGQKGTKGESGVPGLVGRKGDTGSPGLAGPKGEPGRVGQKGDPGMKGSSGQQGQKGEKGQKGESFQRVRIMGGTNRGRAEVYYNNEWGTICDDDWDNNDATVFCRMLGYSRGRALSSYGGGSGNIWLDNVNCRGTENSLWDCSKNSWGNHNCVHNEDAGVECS

[2] = target: T2, Mouse MARCO, full length, on cells (mouse, UniProt Q60754 1-518); experiment: flow cytometry, 293T (muMARCO)
T2 construct: whole, on cells; the cell type is named under assay; also called muMARCO; MuMARCO
T2 sequence (looked up): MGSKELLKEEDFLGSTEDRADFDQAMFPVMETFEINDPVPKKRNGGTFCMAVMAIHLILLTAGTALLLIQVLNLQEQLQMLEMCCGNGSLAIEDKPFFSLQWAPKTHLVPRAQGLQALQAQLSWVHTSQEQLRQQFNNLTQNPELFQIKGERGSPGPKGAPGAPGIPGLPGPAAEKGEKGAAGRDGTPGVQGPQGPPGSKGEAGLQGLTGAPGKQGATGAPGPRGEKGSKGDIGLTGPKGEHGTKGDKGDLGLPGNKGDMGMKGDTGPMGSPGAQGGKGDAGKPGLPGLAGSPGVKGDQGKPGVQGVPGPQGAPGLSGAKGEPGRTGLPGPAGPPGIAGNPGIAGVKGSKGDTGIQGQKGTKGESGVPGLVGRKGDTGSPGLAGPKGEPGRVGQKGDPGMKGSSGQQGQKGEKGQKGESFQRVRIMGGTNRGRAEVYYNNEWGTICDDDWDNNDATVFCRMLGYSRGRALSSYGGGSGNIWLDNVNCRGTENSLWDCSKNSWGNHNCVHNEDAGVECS

hVar3 (RG3036) = target: T3, hVar3 (RG3036) (human, UniProt Q9UEW3 147-520); experiment: ELISA on recombinant hVar3 protein, A450
T3 construct: Human MARCO His-CLD-SRCR with Q452D, Y472S and K473S (already in the entry); also called recombinant human SRCR MARCO hVar3 protein

[3] = target: T1, N-terminal his-tagged mouse MARCO …; experiment: ELISA on mMARCO ECD with 2 mM Ca2+, A450-A620
[4] = target: T2, Mouse MARCO, full length, on cells; experiment: competition with AF488 E. coli binding to muMARCO 293T cells, flow cytometry
[5] = target: T4, hMARCO(His-CLD-SRCR) (RG3033) (human, UniProt Q9UEW3 147-520); experiment: ProbeLife Gator study, statement on the loaded antibodies
T4 construct: also called wild type hMARCO
T4 sequence: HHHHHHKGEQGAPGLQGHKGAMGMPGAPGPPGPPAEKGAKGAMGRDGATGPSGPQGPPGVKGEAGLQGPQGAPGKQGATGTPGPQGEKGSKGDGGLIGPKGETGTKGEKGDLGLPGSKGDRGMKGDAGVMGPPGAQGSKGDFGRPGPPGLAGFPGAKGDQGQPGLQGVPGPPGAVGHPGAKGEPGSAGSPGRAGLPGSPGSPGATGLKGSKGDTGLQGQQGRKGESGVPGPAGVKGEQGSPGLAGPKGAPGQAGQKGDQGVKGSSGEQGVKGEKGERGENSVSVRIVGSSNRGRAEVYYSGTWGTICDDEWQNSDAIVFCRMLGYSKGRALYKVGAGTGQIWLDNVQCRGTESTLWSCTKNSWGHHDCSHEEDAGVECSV
Outline: (§1)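 Antibody pairing on MARCO was assessed by biolayer interferometry on ProbeLife probes. In tandem format, 200 nM His-tagged MARCO was loaded on anti-His probes for 120 s, then a 60 s baseline, a first antibody at 200 nM, then a second antibody at 100-200 nM. In sandwich format, the first antibody (200 nM) was captured on anti-Fc probes for 120 s, followed by 200 nM MARCO and then the second antibody (200 nM), each for 120 s.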

[6] = target: T1, N-terminal his-tagged mouse MARCO …; experiment: as above
Outline: as §1

B1: PI-3008-AB (antibody, mouse IgG2a, kappa, V domains shown)
VH: EVQLVESGGGLVKPGASLKLSCVASGFTFSDDWMNWVRQTPGKAMEWIGDIKYDGSYTNYVPSLKNRLTISRDNAKNTLYLQMTNVRSEDTATYYCTSGGVFDYWGQGVMVTVSS
VL: EIVLSQSPTTMAASPGEKVTITCRASSSVSYMHWFQQKSGTSPKPWIYDTSKLASGVPDRFSGSGSGTSYSLTISSMEAEDAATYYCLQRSGYPPTFGAGTKLEVKR
notes: Recombinant anti-mouse MARCO antibody with mouse IgG2a Fc, from PI-HX-3016
Kd [1]: < 0.02 nM
EC50 [2]: 1.1 nM
binding result (hVar3 (RG3036)): no binding (tested: 20 nM)
EC50 (read off the curve) [3]: ~0.07 nM
EC50 [4]: 1.81 nM

B2: PI-3035-AB (antibody, mouse IgG2a, kappa, V domains shown)
VH: QVQLKESGPGLVQPSQTLSLTCTVSGFSLTSYTLSWVRQPPGKGLEWIGAIWGGDNTDYNSALKSRLSISRDTSKSQVLLKMNSLQTEDTAIYFCTRELGGSFDYWGQGVMVTVSS
VL: DIQMTQSPPVLSASVGDRVTLSCKTSQNINKKLDWYQQKHGEAPKLLIYYTNNLQTGIPSRFSGSGSGTDFTLTISTLQPEDVATYYCYQYDSGFTFGAGTKLELKR
notes: Mouse IgG2a chimera derived from PI-HX-3092; also called HX3092 (A mutation) - mIgG2a
binding result (hVar3 (RG3036)): binds
binding result [5]: binds
binding result [6]: binds
